Laboratory results published in patent publication US12144869B2, “Anti-ROR1 antibody conjugates, compositions comprising anti ROR1 antibody conjugates, and methods of making and using anti-ROR1 antibody conjugates” (Sutro Biopharma, Inc., priority 2022, dated 2024).
Numbering of substitutions follows the chain as printed.

B1: 1944-A07 HC w/hUCHT1 LC3: HC of lead antibody 1944-A07 co-expressed with the LC of anti-CD3 antibody "hUCHT1-LC3" (antibody, V domains shown)
VH: EVQLVESGGGLVQPGGSLRLSCAASGFNITGYYIHWVRQAPGKGLEWVGYISPNSGSTYYADSVKGRFTISADTSKNTAYLQMNSLRAEDTAVYYCARDSRRYVRPFDYWGQGTLVTVSS
VL: DIQMTQSPSTLSASVGDRVTITCRASQDIRNYLNWYQQKPGKAPKLLIYYTSRLHSGVPSRFSGSGSGTEYTLTISSLQPDDFATYYCQQGNTLPWTFGGGTKVEIK
B2: 1944-A07 HC w/hOKT3 LC1: HC of lead antibody 1944-A07 co-expressed with the LC of anti-CD3 antibody "hOKT3-LC1" (antibody, V domains shown)
VH: B1 VH
VL: DIQMTQSPSSLSASVGDRVTITCSASSSVSYMNWYQQKPGKAPKRLIYDTSKLASGVPSRFSGSGSGTEYTLTISSLQPEDFATYYCQQWSSNPFTFGQGTKLEIK
B3: 1944-A07 HC w/hSP34 LC3: HC of lead antibody 1944-A07 co-expressed with the LC of anti-CD3 antibody "hSP34-LC3" (antibody, V domains shown)
VH: B1 VH
VL: QTVVTQEPSLTVSPGGTVTLTCGSSTGAVTSGYYPNWFQQKPGQAPRGLIGGTKFLAPGTPARFSGSLLGGKAALTLSGVQPEDEAEYYCALWYSNRWVFGGGTQLTVTG
B4: SRP2196-A06 (antibody, V domains shown)
VH: B1 VH with Y50Q, Y59H, Y60Q, E89G, P106G, F107W
VL: QAVVTQESALTTSPGETVTLTCRSSTGAVTTSNYANWVQEKPDHLFTGLIGGTNKRAPGVPARFSGSLIGDKAALTITGAQTEDEAIYFCALWYSNLWVFGGGTKLTVL
B5: SRP2196-B06 (antibody, V domains shown)
VH: B1 VH with Y50Q, Y60S, R105L, P106S, F107W
VL: B4 VL
B6: SRP2196-B08 (antibody, V domains shown)
VH: B1 VH with Y50Q, S57Y, Y60L, P106G, F107W
VL: B4 VL
B7: SRP2196-B02 (antibody, V domains shown)
VH: B1 VH with G31Q, S57Q, Y60D, P106S, F107W
VL: B4 VL
B8: SRP2196-A04 (antibody, V domains shown)
VH: B1 VH with T30S, G31P, Y50Q, S52Y, N54I, S57H, Y60Q, D99E, R105G, D108G
VL: B4 VL
B9: SRP2196-A05 (antibody, V domains shown)
VH: B1 VH with G31N, S57A, Y60Q, P106S, F107W
VL: B4 VL
B10: SRP2196-B04 (antibody, V domains shown)
VH: B1 VH with G31E, S57A, Y60Q, P106G, F107W
VL: B4 VL
B11: SRP2196-A08 (antibody, V domains shown)
VH: B1 VH with Y60K, K76R, P106S, F107W
VL: B4 VL
B12: SRP1944-A07 w SP34 LC3: "initial antibody leads constructed with an SP34 light chain" (antibody, V domains shown)
VH: B1 VH
VL: B3 VL
B13: SRP2196-A11 (antibody, V domains shown)
VH: B1 VH with Y50Q, S57T, Y60D, P106G, F107W
VL: B4 VL
B14: SRP2196-A10 (antibody, V domains shown)
VH: B1 VH with S57A, Y59H, T74I, Y94H, P106S, F107W
VL: B4 VL
B15: SRP2196-A02 (antibody, V domains shown)
VH: B1 VH with Y50Q, S57A, Y59H, Y60D, P106G, F107W
VL: B4 VL
B16: SRP2196-B05 (antibody, V domains shown)
VH: B1 VH with Y50Q, S57A, Y60H, P106G, F107W
VL: B4 VL
B17: SRP2196-A01 (antibody, V domains shown)
VH: B1 VH with Y50Q, S57Y, P106G, F107W
VL: B4 VL

Target: T1, human ROR1-Fz (Homo sapiens, UniProt Q01973)
T1 construct: Frizzled (Fz, residues 165-305); His6 (C); purchased Acro Biosystems; host or cells: HEK293
T1 sequence (Q01973 165-305): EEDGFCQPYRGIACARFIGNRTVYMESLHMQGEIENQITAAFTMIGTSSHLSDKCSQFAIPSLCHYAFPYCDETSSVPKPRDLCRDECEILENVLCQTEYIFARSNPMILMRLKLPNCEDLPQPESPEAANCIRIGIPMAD
Experiment: Biacore off-rate and kinetic analysis, ROR1-Fz
Type: binding
Settings: Table 7; sample ROR1 Fz; 1944-A07 HC with different LCs
Method: Anti-Fc polyclonal antibodies were immobilized onto a CMS chip (GE Life Sciences) using amine coupling chemistry (from Amine Coupling Kit, GE Life Sciences). The immobilization steps were carried out at a flow rate of 25 μL/min in 1×HBS-EP+buffer (GE Life Sciences; 10× Stock diluted before use). The sensor surfaces were activated for 7 min with a mixture of NHS (0.05 M) and EDC (0.2 M). The Anti-Fc antibodies were injected over all 4 flow cells at a concentration of 25 ug/ml in 10 mM sodium acetate, pH 4.5, for 7 min. Ethanolamine (1 M, pH 8.5) was injected for 7 min to block any remaining activated groups. An average of 12,000 response units (RU) of capture antibody was immobilized on each flow cell.
Off-rate and kinetic binding experiments were performed at 25° C. using 1×HBS-EP+buffer. Test and control antibodies were injected over the anti-Fc surface at concentrations of 5-10 μg/mL for 12 seconds at a flow rate of 10 μL/min on flow cells 2, 3 and 4, followed by a buffer wash for 30 seconds at the same flow rate. Kinetic characterization of antibody samples was carried out with a range of antigen concentrations from 1-100 nM and 1 injection of 0 nM antigen (for example, 100, 50, 25, 6.25, 1.56 and 0 nM). After capturing ligand (antibody) on the anti-Fc surface, the analyte (hROR1, Fz or Kr domains, Acro Biosystems, Delaware) was bound for 180 seconds, followed by a 600 second dissociation phase at a flow rate of 50 μL/min. Between each ligand capture and analyte binding cycle, regeneration was carried out using 2 injections of 10 mM Glycine pH 2.0 for 30 seconds at 30 μL/min, followed by a 30 second buffer wash step.
The data was fit with the Biacore T200 Evaluation software, using a 1-1 Langmuir binding model. KD (affinity, nM) was determined as a ratio of the kinetic rate constants calculated from the fits of the association and dissociation phases.
For anti-CD3-LC-containing IgGs that had detectable ROR1-binding in ELISA (1944-A07 and 1987-C05 variants), those antibodies were further tested for binding by surface plasmon resonance (SPR). Binding kinetics were assessed to the ROR1-frizzled domain (hROR1-Fz) or the ROR1-extracellular domain (hROR1) for 1944-A07 and 1987-C05 variants, respectively. Briefly, anti-ROR1 antibodies were captured via anti-human Fc polyclonal antibodies immobilized to a CM5 chip, and ROR1 recombinant proteins were flowed across the surface to assess binding kinetics. hROR1 or hROR1-Fz domain (Acro Biosystems, Delaware) binding was tested at 100, 50, 25, 6.25, 1.5625 nM. The data was fit with the Biacore™ T200 Evaluation software, using a 1-1 Langmuir binding model. KD (affinity, nM) was determined as a ratio of the kinetic rate constants calculated from the fits of the association and dissociation phases.

Row | Molecule | ka1 [M⁻¹ s⁻¹] | kd1 [s⁻¹] | KD
1 | B1 | 1.85e+06 | 0.119 | 
2 | B2 |  |  | Not detected
3 | B3 | 360000 | 0.00228 | 

Same assay, conditions: Table 11; SP34 light chain

Row | Molecule | Biacore human ROR1-Fz ka [M⁻¹ s⁻¹] | Biacore human ROR1-Fz kd [s⁻¹]
4 | B4 | 180000 | 0.00069
5 | B5 | 142000 | 0.000423
6 | B6 | 156000 | 0.000488
7 | B7 | 163000 | 0.000227
8 | B8 | 139000 | 0.000343
9 | B9 | 175000 | 0.000682
10 | B10 | 127000 | 0.000352
11 | B11 | 183000 | 0.00078
12 | B12 | 597000 | 0.0085
13 | B13 | 191000 | 0.000792
14 | B14 | 172000 | 0.000479

Same assay, conditions: hROR1-Fz; 1944-A07 variants

Row | Molecule | KD (SPR binding kinetics)
15 | B1 | binding was not detected

Tested on: not listed separately
Experiment: Differential scanning fluorimetry (protein thermal shift; TM1/TM2)
Type: physicochemical
Settings: Table 11; melting temperature of the Fab domain
Method: A protein thermal shift assay was carried out by mixing the protein to be assayed with an environmentally sensitive dye (SYPRO Orange, Life Technologies Cat #S-6650) in a phosphate buffered solution (PBS), and monitoring the fluorescence of the mixture in real time as it underwent controlled thermal denaturation. Protein solutions between 0.2-2 mg/mL were mixed at a 1-1 volumetric ratio with a 1-500 PBS-diluted solution of SYPRO Orange (SYPRO Orange stock dye is 5000× in DMSO). 10 μL aliquots of the protein-dye mixture were dispensed in quadruplicate in a 384-well microplate (Bio-Rad Cat #MSP-3852), and the plate was sealed with an optically clear sealing film (Bio-Rad Cat #MSB-1001) and placed in a 384-well plate real-time thermocycler (Bio-Rad CFX384 Real Time System). The protein-dye mixture was heated from […], at increments of 0.1° C. per cycle (˜1.5° C. per minute), allowing 3 seconds of equilibration at each temperature before taking a fluorescence measurement. At the end of the experiment, the transition melting temperatures (TM1 and TM2) were determined using the Bio-Rad CFX manager software. TM1 represents the melting temperature of the Fc domain. TM2 represents the melting temperature of the Fab domain.
For the thermal stability of an antibody, the first melting peak (Tm1) coincides with the unfolding of the CH2 domain (FC stability), while the second melting peak (Tm2) occurs upon unfolding of the Fab domain.

Row | Molecule | TM2 (° C.) [°C]
16 | B4 | 70
17 | B5 | 70
18 | B15 | 71
19 | B6 | 75
20 | B16 | 73
21 | B7 | 69
22 | B9 | 71
23 | B10 | 72
24 | B11 | 69
25 | B17 | 74
26 | B13 | 73
27 | B14 | 68
